Starred links: 1 amine or outer side, 2 acyl side, 3 side chain; linkers in the order of their positions; H or OH if unused. Positions of bridges follow the written chain, without caps; N, C: chain ends. Non-standard residues stand in square brackets, D forms with d. Primed or numbered codes have the meaning given here. PyrS2″ = (S)-3-amino-1-((pent-4-en-1-yloxy)carbonyl)pyrrolidine-3-carboxylic acid (stapling residue), C=CCCCOC(=O)N1CC[C@@](N[*:1])(C(=O)[*:2])C1; (bismethoxyethylamine)GlnR = [bismethoxyethylamine]GlnR, N5,N5-bis(2-methoxyethyl)-L-glutamine, COCCN(CCOC)C(=O)CC[C@H](N[*:1])C(=O)[*:2]; B5(4) = 2,2-bis(4-pentenyl)glycine = 2-amino-2-(pent-4-en-1-yl)hept-6-enoic acid (stitching residue), C=CCCCC(CCCC=C)(N[*:1])C(=O)[*:2]; B5(19) = 2-amino-2-(pent-4-en-1-yl)hept-6-enoic acid (bis(4-pentenyl)glycine), C=CCCCC(CCCC=C)(N[*:1])C(=O)[*:2]; B5(25) = 2-amino-2-(pent-4-en-1-yl)hept-6-enoic acid (stitching residue), C=CCCCC(CCCC=C)(N[*:1])C(=O)[*:2]; PyrR = (R)-1-((allyloxy)carbonyl)-3-aminopyrrolidine-3-carboxylic acid; RbGlu = 3-aminopentanedioic acid, R/S prefix not explained; SbGlu = 3-aminopentanedioic acid, R/S prefix not explained; Phe(3-COOH) = N[C@@H](Cc1cccc(C(=O)O)c1)C(=O)O; Phe(2-CF3) = N[C@@H](Cc1ccccc1C(F)(F)F)C(=O)O; dαMeGly(allyl) = C=CC[C@@](C)(N)C(=O)O; Bta = N[C@@H](Cc1csc2ccccc12)C(=O)O; αAllylPro = C=CC[C@@]1(C(=O)O)CCCN1; tBuAla = CC(C)(C)C[C@H](N)C(=O)O; 3Thi = N[C@@H](Cc1ccsc1)C(=O)O; S8 = C=CCCCCCC[C@](C)(N)C(=O)O; R5 = C=CCCC[C@@](C)(N)C(=O)O; Nle = CCCC[C@H](N)C(=O)O; Abu = CC[C@H](N)C(=O)O; Aib = CC(C)(N)C(=O)O
B1: I-657 (peptide)
peptide: Ac-[αAllylPro]DI[B5(4)]DE[Nle]AFQ[S8]F[Bta]Q-NH2
modifications: staple 1-4, 4-11
B2: I-656 (peptide)
peptide: Ac-[αAllylPro]DI[B5(4)]DE[Nle]AFQ[S8]F[Bta]Q-NH2
modifications: staple 1-4, 4-11
B3: I-676 (peptide)
peptide: Ac-[αAllylPro]DI[B5(4)][SbGlu]EAAFQ[S8]F[Bta]Q-NH2
modifications: staple 1-4, 4-11
B4: I-672 (peptide)
peptide: Ac-[αAllylPro][SbGlu]I[B5(4)]DEAAFQ[S8]F[Bta]Q-NH2
modifications: staple 1-4, 4-11
B5: I-667 (peptide)
peptide: Ac-[αAllylPro]DI[B5(4)]DEA[Nle]FQ[S8]F[Bta]Q-NH2
modifications: staple 1-4, 4-11
B6: I-666 (peptide)
peptide: Ac-[αAllylPro]DI[B5(19)]DEA[Nle]FQ[S8]F[Bta]Q-NH2
modifications: staple 1-4, 4-11
B7: I-675 (peptide)
peptide: Ac-[αAllylPro]DI[B5(4)][RbGlu]EAAFQ[S8]F[Bta]Q-NH2
modifications: staple 1-4, 4-11
B8: I-2559 (peptide)
peptide: Ac-[αAllylPro]D[tBuAla][B5(4)]D[Phe(3-COOH)][Aib]AF[Abu][PyrS2″][3Thi][Bta][(bismethoxyethylamine)GlnR]-NH2
modifications: staple 1-4, 4-11
B9: I-2569 (peptide)
peptide: Ac-[PyrR]ED[tBuAla][B5(25)]D[Phe(3-COOH)]AAFL[PyrS2″][Phe(2-CF3)][Bta]Q-NH2
modifications: staple 1-5, 5-12 (inferred); not fully specified; printed as Ac-PyrR-Glu-Asp-Npg-B5-Asp-3COOHF-Ala-Ala-Phe-Leu-PyrS2-2F3MeF-BztA-Gln-NH2
B10: I-2566 (peptide)
peptide: Ac-P[dαMeGly(allyl)]D[tBuAla][B5(25)]D[Phe(3-COOH)]AAFL[PyrS2″][Phe(2-CF3)][Bta]Q-NH2
modifications: staple 5-12, 2-5
B11: I-2572 (peptide)
peptide: Ac-P[dαMeGly(allyl)]D[tBuAla][B5(4)]D[Phe(3-COOH)]AAFL[PyrS2″][Phe(2-CF3)][Bta]Q-NH2
modifications: staple 5-12, 2-5; also: -CH=CH- in each staple reduced to -CH2-CH2-
B12: I-2573 (peptide)
peptide: Ac-P[R5]D[tBuAla][B5(25)]D[Phe(3-COOH)]AAFL[PyrS2″][Phe(2-CF3)][Bta]Q-NH2
modifications: staple 5-12, 2-5; also: staple -CH=CH- reduced to -CH2-CH2-
B13: I-2568 (peptide)
peptide: Ac-[PyrR]AD[tBuAla][B5(25)]D[Phe(3-COOH)]AAFL[PyrS2″][Phe(2-CF3)][Bta]Q-NH2
modifications: staple 1-5, 5-12 (inferred); not fully specified; printed as Ac-PyrR-Ala-Asp-Npg-B5-Asp-3COOHF-Ala-Ala-Phe-Leu-PyrS2-2F3MeF-BztA-Gln-NH2
B14: I-2567 (peptide)
peptide: Ac-P[R5]D[tBuAla][B5(25)]D[Phe(3-COOH)]AAFL[PyrS2″][Phe(2-CF3)][Bta]Q-NH2
modifications: staple 5-12, 2-5
B15: I-2554 (peptide)
peptide: Ac-[αAllylPro]D[tBuAla][B5(4)]D[Phe(3-COOH)][Aib]AF[Nle][PyrS2″][3Thi][Bta][(bismethoxyethylamine)GlnR]-NH2
modifications: staple 1-4, 4-11

Molecular target: full-length beta-Catenin (Uniprot ID P35222) (Homo sapiens (Human)) (UniProt P35222)
Test: fluorescence polarization competition; full-length beta-catenin, competitor 5FAM-TCF4(10-53) probe
Target sequence in this assay (P35222 whole entry): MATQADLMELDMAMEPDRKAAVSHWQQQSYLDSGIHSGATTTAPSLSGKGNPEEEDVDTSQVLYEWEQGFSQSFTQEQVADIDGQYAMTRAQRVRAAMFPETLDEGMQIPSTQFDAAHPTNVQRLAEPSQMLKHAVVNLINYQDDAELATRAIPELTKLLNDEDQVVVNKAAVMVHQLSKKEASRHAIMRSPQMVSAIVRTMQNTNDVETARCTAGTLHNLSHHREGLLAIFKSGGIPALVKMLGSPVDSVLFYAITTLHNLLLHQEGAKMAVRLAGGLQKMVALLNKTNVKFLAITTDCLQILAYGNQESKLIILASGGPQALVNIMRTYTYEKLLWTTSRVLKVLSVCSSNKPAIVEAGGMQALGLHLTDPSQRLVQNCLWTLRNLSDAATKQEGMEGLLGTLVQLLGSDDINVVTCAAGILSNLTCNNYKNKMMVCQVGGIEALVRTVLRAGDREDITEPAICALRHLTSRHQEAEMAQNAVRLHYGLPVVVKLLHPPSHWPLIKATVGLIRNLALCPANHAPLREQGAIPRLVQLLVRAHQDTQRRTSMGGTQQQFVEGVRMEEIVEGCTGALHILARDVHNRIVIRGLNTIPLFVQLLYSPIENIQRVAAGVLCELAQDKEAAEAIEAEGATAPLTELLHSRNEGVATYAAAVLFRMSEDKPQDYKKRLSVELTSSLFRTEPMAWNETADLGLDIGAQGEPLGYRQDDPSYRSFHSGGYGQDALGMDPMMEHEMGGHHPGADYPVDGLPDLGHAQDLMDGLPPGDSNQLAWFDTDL

| IC50 [nM] | Binder |
| --- | --- |
| 46 | B1 |
| 73 | B2 |
| 5000 | B3 |
| 5000 | B4 |
| 585 | B5 |
| 626 | B6 |
| 4520 | B7 |

Molecular target: full-length beta-Catenin (Uniprot ID P35222) (Homo sapiens (Human)) (UniProt P35222)
Test: fluorescence polarization competition; competitor 5FAM-TCF4(10-53) on full-length beta-catenin
Target sequence in this assay (P35222 whole entry): as above

| IC50 [nM] | Binder |
| --- | --- |
| 8 | B8 |
| 1950 | B9 |
| 181 | B10 |
| 67 | B11 |
| 234 | B12 |
| 4770 | B13 |
| 522 | B14 |
| 8 | B15 |

Molecular target: full-length beta-Catenin (Uniprot ID P35222) (Homo sapiens (Human)) (UniProt P35222)
Test: fluorescence polarization competition, full-length beta-catenin with 5FAM-TCF4(10-53) probe as competitor
Target sequence in this assay (P35222 2-781 limits assumed): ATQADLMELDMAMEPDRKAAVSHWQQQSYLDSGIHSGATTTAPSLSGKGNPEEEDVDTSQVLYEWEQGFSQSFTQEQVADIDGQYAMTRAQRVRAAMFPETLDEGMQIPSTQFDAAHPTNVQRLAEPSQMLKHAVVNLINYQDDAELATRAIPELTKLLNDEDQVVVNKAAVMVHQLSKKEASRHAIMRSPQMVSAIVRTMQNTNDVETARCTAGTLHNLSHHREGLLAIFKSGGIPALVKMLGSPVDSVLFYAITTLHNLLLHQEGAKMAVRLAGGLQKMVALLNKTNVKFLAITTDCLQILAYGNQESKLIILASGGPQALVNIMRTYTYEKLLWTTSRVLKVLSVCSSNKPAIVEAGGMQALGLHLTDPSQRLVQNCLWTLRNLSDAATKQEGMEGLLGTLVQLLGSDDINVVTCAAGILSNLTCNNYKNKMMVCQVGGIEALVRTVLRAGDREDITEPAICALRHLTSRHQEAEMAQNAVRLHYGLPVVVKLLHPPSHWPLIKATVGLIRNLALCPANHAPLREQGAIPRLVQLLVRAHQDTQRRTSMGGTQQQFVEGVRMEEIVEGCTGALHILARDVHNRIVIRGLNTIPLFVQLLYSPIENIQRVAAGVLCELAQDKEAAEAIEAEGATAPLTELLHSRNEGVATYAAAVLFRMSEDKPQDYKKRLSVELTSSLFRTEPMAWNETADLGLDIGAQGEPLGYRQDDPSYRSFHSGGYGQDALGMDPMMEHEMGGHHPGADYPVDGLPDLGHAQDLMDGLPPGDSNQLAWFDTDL

| EC50 [nM] | Binder |
| --- | --- |
| 46 | B1 |
| 73 | B2 |
| 5000 | B3 |
| 5000 | B4 |
| 585 | B5 |
| 626 | B6 |
| 4520 | B7 |

Source: patent US20240116985A1, “STAPLED PEPTIDES AND METHODS THEREOF” (priority 2020, published 2024)
